Results on 14 molecules are retold here after PMC7641761.

Data set [1] concerns the target T1, Ku70/Ku80 heterodimer FL (baculovirus) (human, UniProt P12956;P13010 1-609;1-718). Briefly: MST; MST: 50 mM Tris pH 8.0, 50 mM NaCl, 1 mM DTT, 24 C, 40 nM FAM-RNA; EMSA: 25 mM Hepes-KOH pH 7.5, 50 mM NaCl, 1 mM DTT, 1 mM EDTA, 10% glycerol, 0.1 uM BSA, room temperature, 25 min. The settings on record: protein: recombinant, tags: His (Ku80), copies: 1;1, label: 5'-FAM.

Data set [2] has as its target T1, Ku70/Ku80 heterodimer FL (baculovirus). Nature of the data set: MST; Hill 1.0; MST: 50 mM Tris pH 8.0, 50 mM NaCl, 1 mM DTT, 24 C, 40 nM FAM-RNA; EMSA: 25 mM Hepes-KOH pH 7.5, 50 mM NaCl, 1 mM DTT, 1 mM EDTA, 10% glycerol, 0.1 uM BSA, room temperature, 25 min. The conditions noted are these: protein: recombinant; tags: His (Ku80); copies: 1;1; label: 5'-FAM stated for MST RNAs.

Data set [3] shares this target. Briefly: EMSA; Ku preparation not stated; MST: 50 mM Tris pH 8.0, 50 mM NaCl, 1 mM DTT, 24 C, 40 nM FAM-RNA; EMSA: 25 mM Hepes-KOH pH 7.5, 50 mM NaCl, 1 mM DTT, 1 mM EDTA, 10% glycerol, 0.1 uM BSA, room temperature, 25 min. The conditions noted are these: protein: recombinant; tags: His (Ku80); copies: 1;1; label: 5'-FAM; G4.
Data set [4] shares this target. Briefly: MST; Hill 1.75; MST: 50 mM Tris pH 8.0, 50 mM NaCl, 1 mM DTT, 24 C, 40 nM FAM-RNA; EMSA: 25 mM Hepes-KOH pH 7.5, 50 mM NaCl, 1 mM DTT, 1 mM EDTA, 10% glycerol, 0.1 uM BSA, room temperature, 25 min. The settings on record: protein: recombinant; tags: His (Ku80); copies: 1;1; label: 5'-FAM; blunt.
The next data set deals with Ku5D (human, UniProt P12956;P13010 1-609;1-718, T305D;S306D;T307D;S314D;T316D). Briefly: MST; 20-fold weaker than WT; MST: 50 mM Tris pH 8.0, 50 mM NaCl, 1 mM DTT, 24 C, 40 nM FAM-RNA; EMSA: 25 mM Hepes-KOH pH 7.5, 50 mM NaCl, 1 mM DTT, 1 mM EDTA, 10% glycerol, 0.1 uM BSA, room temperature, 25 min. The conditions noted are these: protein: recombinant; copies: 1;1; label: 5'-FAM on strand 1; fork; 42-mer/29-mer.

For data set [5], the target named is T2, Ku70/Ku80 heterodimer FL (baculovirus);XLF (human;human?, UniProt P12956;P13010;Q9H9Q4 1-609;1-718;1-299, |). Briefly: EMSA; supershift; MST: 50 mM Tris pH 8.0, 50 mM NaCl, 1 mM DTT, 24 C, 40 nM FAM-RNA; EMSA: 25 mM Hepes-KOH pH 7.5, 50 mM NaCl, 1 mM DTT, 1 mM EDTA, 10% glycerol, 0.1 uM BSA, room temperature, 25 min. The settings on record: protein: recombinant;recombinant, tags: His (Ku80);, copies: 1;1;2, label: 5'-FAM.

A further data set deals with Ku dCTR (human, UniProt P12956;P13010 1-609;1-569). Nature of the data set: MST; MST: 50 mM Tris pH 8.0, 50 mM NaCl, 1 mM DTT, 24 C, 40 nM FAM-RNA; EMSA: 25 mM Hepes-KOH pH 7.5, 50 mM NaCl, 1 mM DTT, 1 mM EDTA, 10% glycerol, 0.1 uM BSA, room temperature, 25 min. The settings on record: protein: recombinant; copies: 1;1; label: 5'-FAM; hairpin with bulge.
The target of data set [6] is Ku70/Ku80 heterodimer FL (baculovirus);PAXX (human;human?, UniProt P12956;P13010;Q9BUH6 1-609;1-718;1-204, |). Briefly: EMSA; supershift; MST: 50 mM Tris pH 8.0, 50 mM NaCl, 1 mM DTT, 24 C, 40 nM FAM-RNA; EMSA: 25 mM Hepes-KOH pH 7.5, 50 mM NaCl, 1 mM DTT, 1 mM EDTA, 10% glycerol, 0.1 uM BSA, room temperature, 25 min. The conditions noted are these: protein: recombinant;recombinant; tags: His (Ku80);GST cleaved; copies: 1;1;2; label: 3'-FAM on lower strand; blunt.

Data set [7] has as its target T2, Ku70/Ku80 heterodimer FL …. Nature of the data set: EMSA; supershift; Ku preparation not stated; MST: 50 mM Tris pH 8.0, 50 mM NaCl, 1 mM DTT, 24 C, 40 nM FAM-RNA; EMSA: 25 mM Hepes-KOH pH 7.5, 50 mM NaCl, 1 mM DTT, 1 mM EDTA, 10% glycerol, 0.1 uM BSA, room temperature, 25 min. The settings on record: protein: recombinant;recombinant; tags: His (Ku80);; copies: 1;1;2; label: 3'-FAM on lower strand; blunt.

T1 sequence (P12956 whole entry, chain 1 of 2): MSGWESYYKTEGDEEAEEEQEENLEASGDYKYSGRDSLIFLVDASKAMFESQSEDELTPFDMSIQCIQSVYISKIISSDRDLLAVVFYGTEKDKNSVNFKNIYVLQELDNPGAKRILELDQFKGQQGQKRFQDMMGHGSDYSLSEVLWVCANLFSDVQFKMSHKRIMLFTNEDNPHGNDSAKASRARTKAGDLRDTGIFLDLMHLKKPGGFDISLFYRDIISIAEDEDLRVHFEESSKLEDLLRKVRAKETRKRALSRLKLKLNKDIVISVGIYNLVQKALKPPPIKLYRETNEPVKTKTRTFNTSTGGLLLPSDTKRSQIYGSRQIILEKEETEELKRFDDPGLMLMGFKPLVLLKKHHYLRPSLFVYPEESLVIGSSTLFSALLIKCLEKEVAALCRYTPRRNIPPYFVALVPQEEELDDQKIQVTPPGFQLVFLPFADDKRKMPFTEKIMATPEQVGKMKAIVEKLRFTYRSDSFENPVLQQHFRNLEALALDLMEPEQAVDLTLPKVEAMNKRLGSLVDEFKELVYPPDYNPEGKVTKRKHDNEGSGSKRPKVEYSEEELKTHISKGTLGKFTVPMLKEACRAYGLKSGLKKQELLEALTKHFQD
T1 sequence (P13010 1-718, chain 2 of 2): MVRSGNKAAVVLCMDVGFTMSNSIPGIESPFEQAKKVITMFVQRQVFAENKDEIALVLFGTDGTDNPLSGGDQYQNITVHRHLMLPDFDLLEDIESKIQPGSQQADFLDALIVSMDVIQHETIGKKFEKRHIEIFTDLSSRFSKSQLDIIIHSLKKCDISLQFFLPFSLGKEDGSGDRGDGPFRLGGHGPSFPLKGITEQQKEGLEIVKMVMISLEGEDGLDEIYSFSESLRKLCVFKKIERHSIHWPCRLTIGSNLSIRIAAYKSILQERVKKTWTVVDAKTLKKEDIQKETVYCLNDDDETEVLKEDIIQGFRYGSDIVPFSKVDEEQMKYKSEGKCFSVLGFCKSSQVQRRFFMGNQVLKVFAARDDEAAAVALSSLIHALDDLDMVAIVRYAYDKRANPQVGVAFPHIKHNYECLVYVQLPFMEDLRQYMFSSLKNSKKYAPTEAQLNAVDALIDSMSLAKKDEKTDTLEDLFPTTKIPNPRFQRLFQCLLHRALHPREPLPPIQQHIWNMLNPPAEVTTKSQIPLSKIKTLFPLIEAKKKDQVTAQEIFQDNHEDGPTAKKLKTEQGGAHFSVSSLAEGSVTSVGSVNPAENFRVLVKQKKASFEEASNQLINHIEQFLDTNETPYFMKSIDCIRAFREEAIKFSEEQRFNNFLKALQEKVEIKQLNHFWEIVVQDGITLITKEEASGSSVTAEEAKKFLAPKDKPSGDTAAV
T2 sequence (P12956 whole entry, chain 1 of 3): as the sequence (P12956 whole entry, chain 1 of 2) above
T2 sequence (P13010 1-718, chain 2 of 3): as the sequence (P13010 1-718, chain 2 of 2) above
T2 sequence (Q9H9Q4 whole entry, chain 3 of 3): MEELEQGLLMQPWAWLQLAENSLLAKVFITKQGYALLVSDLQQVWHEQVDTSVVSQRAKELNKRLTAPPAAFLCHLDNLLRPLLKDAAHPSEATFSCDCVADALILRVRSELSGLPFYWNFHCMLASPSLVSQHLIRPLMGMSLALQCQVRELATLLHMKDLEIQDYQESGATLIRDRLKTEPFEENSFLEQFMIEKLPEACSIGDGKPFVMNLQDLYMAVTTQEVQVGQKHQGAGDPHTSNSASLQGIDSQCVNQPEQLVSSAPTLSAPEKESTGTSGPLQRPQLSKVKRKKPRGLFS
Ku dCTR, sequence (P12956 whole entry, chain 1 of 2): as the sequence (P12956 whole entry, chain 1 of 2) above
Ku dCTR, sequence (P13010 1-569, chain 2 of 2): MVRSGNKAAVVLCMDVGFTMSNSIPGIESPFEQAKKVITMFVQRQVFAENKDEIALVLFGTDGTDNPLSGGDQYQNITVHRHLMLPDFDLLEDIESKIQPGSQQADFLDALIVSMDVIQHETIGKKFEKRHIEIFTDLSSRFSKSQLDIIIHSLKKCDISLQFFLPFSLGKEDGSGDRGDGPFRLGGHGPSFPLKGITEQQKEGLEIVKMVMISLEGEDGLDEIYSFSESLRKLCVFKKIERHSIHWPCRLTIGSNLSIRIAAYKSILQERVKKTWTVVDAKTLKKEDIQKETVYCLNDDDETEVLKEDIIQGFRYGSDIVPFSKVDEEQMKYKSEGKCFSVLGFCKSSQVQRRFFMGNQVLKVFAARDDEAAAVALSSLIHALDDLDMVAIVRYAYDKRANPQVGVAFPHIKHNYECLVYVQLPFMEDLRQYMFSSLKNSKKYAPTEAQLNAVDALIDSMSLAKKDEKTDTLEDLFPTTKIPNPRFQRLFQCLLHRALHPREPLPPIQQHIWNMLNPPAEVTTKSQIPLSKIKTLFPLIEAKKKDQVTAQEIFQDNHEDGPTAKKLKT
Ku70/Ku80 heterodimer FL (baculovirus);PAXX, sequence (P12956 whole entry, chain 1 of 3): as the sequence (P12956 whole entry, chain 1 of 2) above
Ku70/Ku80 heterodimer FL (baculovirus);PAXX, sequence (P13010 1-718, chain 2 of 3): as the sequence (P13010 1-718, chain 2 of 2) above
Ku70/Ku80 heterodimer FL (baculovirus);PAXX, sequence (Q9BUH6 whole entry, chain 3 of 3): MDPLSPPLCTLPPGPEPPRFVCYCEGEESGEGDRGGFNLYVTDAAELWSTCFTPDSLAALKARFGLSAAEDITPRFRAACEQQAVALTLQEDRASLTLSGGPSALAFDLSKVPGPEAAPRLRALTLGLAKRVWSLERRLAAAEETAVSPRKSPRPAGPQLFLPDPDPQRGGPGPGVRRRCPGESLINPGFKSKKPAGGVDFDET
Ku5D, sequence (P12956 whole entry T305D/S306D/T307D/S314D/T316D, chain 1 of 2): as the sequence (P12956 whole entry, chain 1 of 2) above, with T305D, S306D, T307D, S314D, T316D counted along it
Ku5D, sequence (P13010 1-718, chain 2 of 2): as the sequence (P13010 1-718, chain 2 of 2) above

Turning to UGACUGGAGGAAGGAGUAUAGAAACUCUUCCUUUUGGCG (structured_RNA) [SL2-BT], the Kd in [1] (hairpin) was found to be 6050 ± 9400 nM.

B1: LINP1 (1-300) (structured_RNA)
RNA: CCCUCCGUCUCCUUGACUCUGGGUGGGCUGUGUGACUUUUCCUUGCUCAAUAGAAUGAGAAGGAGGUGGCGCACCGGCUACAAGGCUAGACCGGGGGCUCGCAUAUCUCCACUUGCAGCUGCCACUGCCAUUAGAAGAACUUGCUCAGCCAGCUCCUGGGCCCCAGGAAAAGGACAAGUGUCACCCAGAACAGAGCCACCUCCAGCUGCACUCAGCUCCAGAAGCUGGCCCAGCCGGUCCAGUACACCUUUUAAAUAAUGUCCUCUACGUGCCGGUGUGGAAGUAGCCCGGAUGCAAUUG
In the case of B1, in data set [2], the Kd came to 1920 ± 330 nM.
As to TTAGGGTTAGGGTTAGGGTTAGGG (structured_DNA) [DNA G-quadruplex], in data set [3], the binding result was “no binding”.
UGACUUUUCCUUGCUCAUUUUUUUGAGAAGGAGGUGGCG (structured_RNA) [SL2-LM]: the Kd in data set [1] (hairpin) was found to be 1620 ± 470 nM.

B2: d50 DNA (dsDNA)
DNA 1: CTCTTGGTGATTATGGTTGCAATACATTTAATTTCATTATCAATTAG
DNA 2: CTAATTGATAATGAAATTAAATGTATTGCAACCATAATCACCAAGAG
On to B2, for which the Kd in data set [4] is 19 ± 19 nM.
CCCUCCGUCUCCUUGACUCUGGG (structured_RNA) [SL1]: in [1] (hairpin), the dissociation constant (Kd) was 1690 ± 700 nM.

B3: Fork substrate (dsDNA)
DNA 1: CGCGCCCAGCTTTCCCAGCTAATAAACTAAAAACTCCTAAGG
DNA 2: CCTTAGGAGTTTTTAGTTTATTGGGCGCG
With B3, the equilibrium dissociation constant (Kd) with Ku5D is around 15000 nM.
As to CCUGGGGUAGGAGAGGGUAUGGGGACCAGGGCACU (structured_RNA) [LINP1 GQ1], the Kd in [1] (G4) turned out to be 110 ± 40 nM. The binding result in [5] (G4) is “binds”.
UGACUUUUCCUUGCUCAAUAGAAUGAGAAGGAGGUGGCG (structured_RNA) [SL2]: the Kd came out at 900 ± 170 nM in data set [1] (hairpin with bulge) and 1020 ± 180 nM in the data set with Ku dCTR. Besides, the binding result in [5] (hairpin with bulge) was “binds”.
With UAGGGUUAGGGU (structured_RNA) [TERRA G-quadruplex], the Kd in data set [1] (G4 (multimeric)) turned out to be 430 ± 180 nM.
Regarding AACCGUAGACCCCGUCGACCGUUAUCUCCACUACGUCGGGGGACUGGGA (structured_RNA) [SL3-BT], the Kd in data set [1] (hairpin) was determined as 1870 ± 360 nM.
For the molecule AAGGCUAGACCGGGGGCUCGCAUUUCUUUUUUUGCAGCUGCCACUGCCA (structured_RNA) [SL3-LM], the Kd in [1] (hairpin) came out at 2370 ± 1040 nM.
As for AAGGCUAGACCGGGGGCUCGCAUAUCUCCACUUGCAGCUGCCACUGCCA (structured_RNA) [SL3], the dissociation constant Kd in data set [1] (hairpin with bulge) was found to be 840 ± 450 nM. The binding result in data set [5] (hairpin with bulge) was “binds”.

B4: 25bp duplex DNA (dsDNA)
DNA 1: AGCATTGACTGGCATCGTAGCATCC
DNA 2: GGATGCTACGATGCCAGTCAATGCT
Consider B4, for which the binding result in data set [6] and in data set [7] was “binds” throughout.
